In the DeepSol protein solubility set:

test: soluble on expression in E. coli; label from the status in PepcDB or PDB records

Sequence | soluble on expression in E. coli
MAHHHHHHMLFRTIRHFDLRRPTLMELVRELRFRTEAPIADCCAALKEANENMDRALEVLRNKGLAKAVKKGSRVTEHGSVVACVGETFGAAIVTVCSETDFAARSLQFQRVCGTVMETLRTQIISTEGTALDDCAAVHRLLTDAAAEQIQATIAVLGENVTIKSIQPLRFAPHVAEHISIGAYTHGTLSVQNVGRVAGVVAVSRTDPSARVPEEKLVDVARHFVACSGAEGSYAHQNFFGTEETVGQWLKRHGLRFSSSLVVDFGKEPIIHTAPQPVAGTK | soluble
MAHHHHHHMLLKALKASFEANKRVYESVLLTFKGVDGYDVYNCSVPFSYKGKTHIYGRVEKRDIWAASHVRLFEETGKDEFTAVPELSWELEDPYIAKINNEMIFGGTRVRKNGNAILSYYGYFYRGTPVELNYFTTGPDYMKDIRVVPLQDGRLGVFSRVRTRAEVYVGFSTVDTIDHLTTEVIATAKAIDFIRPGTWGGVNQAYLLSSGKIGCIGHFAYNDTKPSGEPLMVYINISFVFDAETRQLDTEHVIGTKSCYPACPAKLPVLEDCVFASGIVMRSDGKCDLYSGLGDTHEGRITIDYPFHGYGNIVGQMIF | not soluble
MAHHHHHHMLNILSYSKLFSSCGRQAVTCPKGCNSYRHVSTGSDECLFTDGRASMGREFTLQPVEMEPVFKVHRPYSSSNCDNPISEDDLPYECGASSDCNTRSSTLRERAVCDEPLAKGLQNTTASTPYRVSWYERGAVSPSKRFVYWAFRRLWDLPPDAREYYRRMLYQEVRAARYVNQTWDCFMMVVDGYRKGKWILKKYGIKIDEGLIPKPYNNFWEETTHEERVWAHRRSHQMKDLQALQREDDNLVFGAHIMDRREVTYGSVKNLQTGMQGGTPVHAHDLPAPFEADVKMSLHEEDISSALMSSIEDDKLWNPVLRSRVHNKLARDEAELYGFEDEDDGDDRS | not soluble
MAHHHHHHMLRGVTIKCGNVTNAVRVPSRFISMAPTRNEEKATQKRNKWEYILSLDEALYLSKEMGIKTTTEVQKIVMRSPPFSPDMSPFLIDNFLCSANRGSHSDEIAQIDQKLKALEERGDNSQESEKGEVQVALHNNEMNDTAQNREEDIINKILIDKFNKKRGKTFIHNDMEWLEESEGIGTNKRSSAYVYIKRGSGIVKVNDEEDLYIRWPYFYNRMDVLEPFYVTNTACVFDVFIKLKGGGISGQSKAARLAVGRALLNACPLIYDELKQHHILYEDMRQKLPKMPGRKKSRAMKQWSKR | not soluble
MAHHHHHHMLTKDADCEKSQQQKLEEDIKSPCTPSFHWVSDEDPKSDRATNHGCAKPLDWSPQTPETPPMSVAELRVTTVADTSETETTSESATHGNELRANEGESSASGTLEKPAGGVAAAGGAAPAAVPQKTEERGSSVPLKHKRSYGASDAVSSSSCHVDALGDLAGSVRQHHPTSTHTLDTSSSNGVGDAAKHAVAAGHVDESLPPPLSGVFFPFTACDAVTTASLVTLISSYCDVLTLVQLMRVNRSAHLLATSDAVWKPLLVSMNLPPLLAAYERDNDYYDFFVKDIITTRALHGHYTFQAANAASGSRESVSTTSGSRSAVMNRNYVSRDEDSLQDDIFNIASLQLLISAASLGQSNHLIGRVQLLITYKNESMEVLQGSCRFSVHRRCFSLCCSAFGTVKRGPVFTVAVATVTKPWANEGFQHFREHKNGIRLVMAPVLWEGPSPGSQITENDILVVSRPKPVPSLITSTTGSAAANSSLGAPTASRG | not soluble
MAHHHHHHMLYSSIRYGRNCTGTNETVKPLGPCVTPLGTILGVFNGVFGYSNCNDSYVSTELRYINLTVPELNNETGQLTYISKQFYTGLAWQCVEYARRYWMQRGTPQPAYFDSVLGAADVWNLTFVRLLSNASITLPLRRYWNGDRVTDNHQIPAIGDIIIYPVQDGGFPYGHVAVIANVELSTHGAIYVAEQNWANAVWSSPHHNYTRRIPMFYDMLTSTITLDDSEHQIIGWMRYG | not soluble
MAHHHHHHMMQPHSQTRAFYCCDDEDKEGTDELLGELLFGADGRRGTDLSSTRCPPPAAPPASLDIAAPASAAATGSGAELPRLRYSRPPPHLTQTTLDLGHAEPTMATRCLLCRMLYSPENDEDAALHRRFCRGGRLRRRDRGPYDAPSSFTGACRSRRARTETAASPLASLSSPAAVAVHMLEELNGAGLGHSPSPLVANTTATVRRGGPRRRESGARGVAKATYTATDTLNTAADATVSLCTCVLRPRSSSSSSPHLSSPLAVFRISLNACGVADSKGGCTALRLLELLDFTPVVLRAAAERDVAPQTASSSVLCGNVPVVPSVRDSAASTVHVVCVVDTVLRLLLCAVVGEPRSREQDPELCVERRADGATVCSTRRNFTHGDVAGLWVLSPAELSAAQTAWEKSTAAPFASTRQALEVFFGTRAGGGAPSSAQSHAAHVTEKAHERCQQAAGVALHALAQYLVYGSSLCPSRQLSYSQAALAAAERMGAGFMEQCLAVASSCYLAGATPTPREDVGELQPLYIHGDSDDGGSDSDDANEDAKGVIGE | not soluble
MAHHHHHHMNAMYSADQIHVPPELGTIMKQYTKAVMRDKPTDLYKYSANFFAILSGYAAPFDSEGQLMENGVQEASSRSTVPISFGSEKEENAGSQDPTDILLRRYDRTGTGYMDPAELPQLLAELRMNLSLDEKDVVSAEDILAALPSACDQIDLLELRNLLLESMGD | soluble
MAHHHHHHMNKNFAQILEDFISDGSRKHRGHGDDGANEENVPHFINQDGSNLFNDDIGKKFEKKNFFKYTEYSLSSLYMSDNQIPLEEDPKFETFINVITKASDVNNEYKWVDDYFKFEVKEEMNILTPRSQDRDFLFRKYLQPNQLKNICLLRKYEQAAISKTPEKNKVDAKIVSEYIVHDSYRQIMKALNFKWSHRIFTKARIFHSKYGNSDHIVILVMRHYKDENFLHPLFHDRALVQIKSYLNDNKHADMTQKNLLNYTEVFKPYVSLRKVDSNFVEQIKDRYYGAF | soluble
MAHHHHHHMNKTKIESSYFTYQNNHSKIGNPILYKGEVIGMEIIDIRVKDDVEGLFNVCSCYLDNEHHAYNKCSESDIHYMQISSIRIIIKIVHNINILTGKKLHINLQDYVTPYPIKSAFIIKKVEHYSCNNINNKSFNEIQEHFYNNEKKLKFYNIFLYETDLQEFKEDIIFENPGMYLLCYTSNDSQSEYSAELSTILVNGNY | not soluble
MAHHHHHHMNRLTNTNKGYTTNKEYISNNAQKNICTINYGQTYSNILNDEEKEKILQQYIYTLSHLSIIDIDREKDISLNISLLLKACLASHNYIKNVEIYTSQIKNQDICSFIYENRTDFEDFVNTHILKYIEFFNKDKIEDTLQSYIKDKILYDNELNIFNIIKNNNIELRKDILQDISFECIRLNKIIQYSLAVNKLDLFSYHIIFKIFMYFKTDQFYYHLFLNNIQKIKYYYSIKNITDQHKEIIYKIVDKYLYIIHYMNNMYQNRDIKNV | not soluble
MAHHHHHHMNRSSSTSVNKDNVLQLTYYEIFSLDEVAESIDLQALHRAYRRFALLFHPDKDASPEAREAFLRVKLAAETLSDPIKRQEYNEQLRREAHEQREVKEQQRECGVGEEAIMAEMILRQKEAESLAKSAAANKEAAEREAAAKKMINELTNALTTPFKQMETALVSEWDIDEGLLDMKVNEIRLLLQKLHNLSCHREGRKGGGGAMGFSSGSEALPTAVKRTREESGVNITA | not soluble
MAHHHHHHMPGKRKRVQGDDNTESQASAVPQGDGQTRARPESHGDTNQPAATHIRVEEPRQPQWTLESRLEDVLLEGKERITNMRLNDFLRNYFDGRGVEEFNENVYMKYFLISPNEFIKDEVLLSTIKVSPPYQELKKEREEFYMLLEASNKLKKECIITLEQWSNFERKDTVTPLARAQINTAFSRVLREERWEAEERQRRERQEMGIDVSTRIKYAVLKGRVRVNKMKLNDFLTMELDGRGVGSANWNFLLRDFFICSTKYIYDVFLLLKIQASDRYNTMERAVRDEMDMEEDVNRLYKNGVDNLLKWLVAAAEVKANVHEVTKRFLDAAAEEAREPKKSSAPMKLEGCYESVYNASWHHFVEVPDGEGTVMEVREGEPPRSWTYKAVGDTLERNDGVEQSGAPRPRLMVLTSDKGWPYTWRRMDPLVAAM | not soluble
MAHHHHHHMPKIRPGMKRPPPGFEKINDKLDEYDAEMRLALSEDPSQAELPVPSKRKDKQNKVEATKDKHAQSVQRGDGGVAGHSDGELDKPEPPLWRVARINRERTRYVFNACFRERIIAEEVLDYCCEMNFIDAGLVRRWSLAGYERLCCNTCCLPGAASEAARMVNKFANRDKKDRRTNGNDDTGGTCICRVPDEKRLAKAFTRCMVCGCSGCGSGGKRKHDTEEKDSVSDMKKVRTDDYEVKSGK | not soluble
MAHHHHHHMPLFCSSTTFMLKVRRAAVKTWKCFAFIAFVSSSMRYISCGFTADDNTKSKSCPFDALGISNNSDMTTVKAAYRSKCQTEHPDVGGTEEGFRRIRWAYESCCEKLVKTGPRSNSEFDGSSHESSSKQKDDEGDYTHSYYRYKSKDERYHEQRQMFYYLFSSVETRNDIDNLLSKALRSHCFDAIDVSEPLRLSLRNYHRVTGYGEHHLTSCFAAMEHWEEYTQRRADVTQYHIMLILYTDGPKPGLTAQLISEGVEAIMEQMCVKGIEYDDWSLTLAHKAYRVCPYPST | not soluble
MAHHHHHHMPPLRGAGRGRNKTGTVPTARTNGGFKAKGSVKPRTFDEYYGEIYGARWHTLRTAMMEAPRKVALWNRFSQVPFEEATRGLSRVEPNSLIQAFQPTQTANSTEAVSTADRGINDDDEAKLQGKALAAAADDLLHRNGVIDKPPIDAFGIKAYYLLDYASAHVVEQLQVGAFDTVLDMCAAPGGKSIAVAQFLSPDGALTCNEARADRCARLRRNLQEHVPVNYVPWRTTQRDAQTWYDPGAFSRVLVDAPCSSERHLLQQSGGSPLSLREWSEETTVQLAALQRMLLQRAIETCRVGGRIVYSTCSISPLENDGVVGEVLQRTRCEVKVIKTSPAAAAAAPVALPKTATDAGESDASGAEACAPHTPTVLGEATAYGRLLLPDTCHGWGPMFLCVLEKTAEHKDVSSSSEDDDE | not soluble
MAHHHHHHMPSGDAMIPRVCRTFSDAFASDEATAKEQGKKYWISRVLGSGATGTVLCAKRRSDGQSFAVKVVEMEGMSEADKNRAQAEVQCLLNCDFFSILKCHEDFAKKDPADEENVLMVALVLDYANAGDLRQEIKNRAKAARAFREHEAGLLFIQVLLAIHHVHSRHMIHRDIKTANILLCSNGLVKLGDFGFSKMYSATVSGDVGKTFCGTPYYVAPEIWRRKPYSKKADIFSLGVLLYELLTLKRPFDGENMQEVMQKALAGRYDPLPPTISPEMTEVVTSLLCGDPHARPSSSKLLNMPICKLFVSGLLEIVQTQPSFAGPLRDTISTHIQSVKQSLKEERRVTVRQMEESQSAAAASTTILEGATPMGSVGDLTLYEGIVKKQSGDLAWKRRYLCIRGALEEGERLDVGRMPKFKSLDLVLAVSKETMRQQCITTPFSELEDVFPVASKYTGSNAQHVFAVAFKTGRRLLFQARGDPERDAWMQKIQQTLGIDEAD | soluble
